The labels stand for the following.
B1: VPS39 (parent)
chain: LRLENNHCHIEESEHVLKKAHKYS
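Note: lentivirally expressed fusions sorted by FACS into six bins by GFP to DsRed ratio, PSI derived from sequencing read proportions per bin multiplied by bin number.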

The data set covers variants of B1. The data set is described as follows: protein stability index of a GFP-peptide fusion (GPS, HEK-293T) (PSI 1-6); higher = more stable. The following applies: c terminus: a fixed tail appended.
Consider LRLENYHCHIEESEHVLKKAHKYS [N6Y], for which the protein stability index turned out to be 2.23.

As for LRLENKHCHIEESEHVLKKAHKYS [N6K], the protein stability index amounted to 3.49.

Regarding LRLENHHCHIEESEHVLKKAHKYS [N6H], the protein stability index is 3.16.

As for LRLENQHCHIEESEHVLKKAHKYS [N6Q], the protein stability index is 2.63.

Regarding LRLENWHCHIEESEHVLKKAHKYS [N6W], the protein stability index was 1.97.

On to LRLENMHCHIEESEHVLKKAHKYS [N6M], for which the protein stability index turned out to be 1.87.

As for LRLENLHCHIEESEHVLKKAHKYS [N6L], the protein stability index is 2.58.

As to LRLENIHCHIEESEHVLKKAHKYS [N6I], the protein stability index was determined as 2.33.

Take LRLENAHCHIEESEHVLKKAHKYS [N6A]: the protein stability index came to 2.72.

As to LRLENSHCHIEESEHVLKKAHKYS [N6S], the protein stability index stood at 2.55.

Consider LRLENGHCHIEESEHVLKKAHKYS [N6G], for which the protein stability index was determined as 2.66.

As for LRLENDHCHIEESEHVLKKAHKYS [N6D], the protein stability index was 2.54.

Turning to LRLENRHCHIEESEHVLKKAHKYS [N6R], the protein stability index stood at 2.49.

For the variant LRLENEHCHIEESEHVLKKAHKYS [N6E], the protein stability index stood at 3.13.

In the case of LRLENTHCHIEESEHVLKKAHKYS [N6T], the protein stability index was determined as 2.35.

As for LRLENCHCHIEESEHVLKKAHKYS [N6C], the protein stability index was found to be 2.44.

On to LRLENPHCHIEESEHVLKKAHKYS [N6P], for which the protein stability index is 2.12.

Turning to LRLENFHCHIEESEHVLKKAHKYS [N6F], the protein stability index stood at 1.75.

As for LRLENVHCHIEESEHVLKKAHKYS [N6V], the protein stability index turned out to be 2.13.

On to LRLENNHDHIEESEHVLKKAHKYS [C8D], for which the protein stability index turned out to be 3.58.

In the case of LRLENNHFHIEESEHVLKKAHKYS [C8F], the protein stability index worked out at 2.29.

Consider LRLENNHEHIEESEHVLKKAHKYS [C8E], for which the protein stability index came out at 2.35.

For the variant LRLENNHHHIEESEHVLKKAHKYS [C8H], the protein stability index was 3.03.

With LRLENNHMHIEESEHVLKKAHKYS [C8M], the protein stability index is 2.43.

With LRLENNHPHIEESEHVLKKAHKYS [C8P], the protein stability index is 2.53.

On to LRLENNHKHIEESEHVLKKAHKYS [C8K], for which the protein stability index came out at 3.3.

Take LRLENNHNHIEESEHVLKKAHKYS [C8N]: the protein stability index amounted to 2.38.

As to LRLENNHGHIEESEHVLKKAHKYS [C8G], the protein stability index amounted to 2.27.

Take LRLENNHIHIEESEHVLKKAHKYS [C8I]: the protein stability index stood at 2.15.

Take LRLENNHQHIEESEHVLKKAHKYS [C8Q]: the protein stability index was found to be 2.27.

Consider LRLENNHLHIEESEHVLKKAHKYS [C8L], for which the protein stability index is 2.47.

On to LRLENNHAHIEESEHVLKKAHKYS [C8A], for which the protein stability index was determined as 3.17.

LRLELNHCHIEESEHVLKKAHKYS [N5L]: the protein stability index was 2.23.

Turning to LRLECNHCHIEESEHVLKKAHKYS [N5C], the protein stability index was found to be 2.22.

Take LRLEGNHCHIEESEHVLKKAHKYS [N5G]: the protein stability index was 1.91.

With LRLETNHCHIEESEHVLKKAHKYS [N5T], the protein stability index stood at 2.48.

Consider LRLEKNHCHIEESEHVLKKAHKYS [N5K], for which the protein stability index is 3.08.

Turning to LRLEYNHCHIEESEHVLKKAHKYS [N5Y], the protein stability index is 2.37.

LRLEWNHCHIEESEHVLKKAHKYS [N5W]: the protein stability index is 1.74.

As for LRLEFNHCHIEESEHVLKKAHKYS [N5F], the protein stability index turned out to be 1.27.

On to LRLEDNHCHIEESEHVLKKAHKYS [N5D], for which the protein stability index stood at 1.94.

As to LRLERNHCHIEESEHVLKKAHKYS [N5R], the protein stability index amounted to 2.77.

As to LRLEINHCHIEESEHVLKKAHKYS [N5I], the protein stability index was found to be 2.22.

For LRLEVNHCHIEESEHVLKKAHKYS [N5V], the protein stability index came to 1.48.

For the variant LRLEHNHCHIEESEHVLKKAHKYS [N5H], the protein stability index is 1.91.

Turning to LRLEPNHCHIEESEHVLKKAHKYS [N5P], the protein stability index stood at 2.29.

Take LRLESNHCHIEESEHVLKKAHKYS [N5S]: the protein stability index is 1.98.

In the case of LRLEMNHCHIEESEHVLKKAHKYS [N5M], the protein stability index was 2.33.

As to LRLEANHCHIEESEHVLKKAHKYS [N5A], the protein stability index was 2.23.

As to LRLEQNHCHIEESEHVLKKAHKYS [N5Q], the protein stability index amounted to 2.18.

Turning to LRLEENHCHIEESEHVLKKAHKYS [N5E], the protein stability index was found to be 2.46.

As to LRLENNMCHIEESEHVLKKAHKYS [H7M], the protein stability index came to 2.46.

Turning to LRLENNSCHIEESEHVLKKAHKYS [H7S], the protein stability index is 2.04.

As for LRLENNLCHIEESEHVLKKAHKYS [H7L], the protein stability index was 2.32.

Turning to LRLENNTCHIEESEHVLKKAHKYS [H7T], the protein stability index turned out to be 2.88.

LRLENNYCHIEESEHVLKKAHKYS [H7Y]: the protein stability index is 2.79.

LRLENNFCHIEESEHVLKKAHKYS [H7F]: the protein stability index was found to be 2.03.

Turning to LRLENNNCHIEESEHVLKKAHKYS [H7N], the protein stability index worked out at 3.37.

Take LRLENNWCHIEESEHVLKKAHKYS [H7W]: the protein stability index turned out to be 2.17.

LRLENNACHIEESEHVLKKAHKYS [H7A]: the protein stability index was 2.79.

In the case of LRLENNICHIEESEHVLKKAHKYS [H7I], the protein stability index stood at 2.15.

As to LRLENNECHIEESEHVLKKAHKYS [H7E], the protein stability index amounted to 2.38.

As to LRLENNPCHIEESEHVLKKAHKYS [H7P], the protein stability index came out at 3.01.

With LRLENNQCHIEESEHVLKKAHKYS [H7Q], the protein stability index was found to be 2.34.

Consider LRLENNKCHIEESEHVLKKAHKYS [H7K], for which the protein stability index worked out at 2.84.

Consider LRLENNRCHIEESEHVLKKAHKYS [H7R], for which the protein stability index is 2.9.

Regarding LRLENNGCHIEESEHVLKKAHKYS [H7G], the protein stability index is 1.97.

As for LRLENNVCHIEESEHVLKKAHKYS [H7V], the protein stability index is 2.35.

LRLENNCCHIEESEHVLKKAHKYS [H7C]: the protein stability index amounted to 2.15.

LRLENNDCHIEESEHVLKKAHKYS [H7D]: the protein stability index was found to be 2.

As to LRTENNHCHIEESEHVLKKAHKYS [L3T], the protein stability index was found to be 3.06.

For the variant LRWENNHCHIEESEHVLKKAHKYS [L3W], the protein stability index amounted to 3.01.

Turning to LRSENNHCHIEESEHVLKKAHKYS [L3S], the protein stability index worked out at 3.33.

As for LRVENNHCHIEESEHVLKKAHKYS [L3V], the protein stability index came out at 2.38.

Consider LRYENNHCHIEESEHVLKKAHKYS [L3Y], for which the protein stability index was determined as 2.56.

LRLPNNHCHIEESEHVLKKAHKYS [E4P]: the protein stability index was found to be 2.83.

Consider LRLMNNHCHIEESEHVLKKAHKYS [E4M], for which the protein stability index came out at 2.65.

With LRLHNNHCHIEESEHVLKKAHKYS [E4H], the protein stability index worked out at 3.32.

With LRLTNNHCHIEESEHVLKKAHKYS [E4T], the protein stability index is 2.56.

With LRLKNNHCHIEESEHVLKKAHKYS [E4K], the protein stability index came to 3.45.

As to LRLCNNHCHIEESEHVLKKAHKYS [E4C], the protein stability index amounted to 2.44.

Regarding LRLINNHCHIEESEHVLKKAHKYS [E4I], the protein stability index was 2.17.

For the variant LRLNNNHCHIEESEHVLKKAHKYS [E4N], the protein stability index worked out at 3.92.

In the case of LRLFNNHCHIEESEHVLKKAHKYS [E4F], the protein stability index came to 2.54.

Consider LRLWNNHCHIEESEHVLKKAHKYS [E4W], for which the protein stability index came out at 2.44.

Turning to LRLYNNHCHIEESEHVLKKAHKYS [E4Y], the protein stability index is 2.53.

In the case of LRLSNNHCHIEESEHVLKKAHKYS [E4S], the protein stability index is 2.71.

Take LRLVNNHCHIEESEHVLKKAHKYS [E4V]: the protein stability index amounted to 2.71.

In the case of LRLLNNHCHIEESEHVLKKAHKYS [E4L], the protein stability index was 2.35.

Turning to LRLRNNHCHIEESEHVLKKAHKYS [E4R], the protein stability index was found to be 3.45.

As to LRLGNNHCHIEESEHVLKKAHKYS [E4G], the protein stability index was determined as 2.41.

LRLANNHCHIEESEHVLKKAHKYS [E4A]: the protein stability index was determined as 2.68.

Take LRLDNNHCHIEESEHVLKKAHKYS [E4D]: the protein stability index stood at 3.12.

For LRLQNNHCHIEESEHVLKKAHKYS [E4Q], the protein stability index stood at 2.92.

Source of the values: the supplement of paper PMC10567573.
